The values that follow are results of earlier work, collected in patent publication US20040047891A1, “Systems devices and methods for intrabody targeted delivery and reloading of therapeutic agents” (priority 2003, published 2004).

The target in data set [1] is T1, ET-A receptor (Homo sapiens, UniProt P25101).
T1 sequence (P25101 21-427): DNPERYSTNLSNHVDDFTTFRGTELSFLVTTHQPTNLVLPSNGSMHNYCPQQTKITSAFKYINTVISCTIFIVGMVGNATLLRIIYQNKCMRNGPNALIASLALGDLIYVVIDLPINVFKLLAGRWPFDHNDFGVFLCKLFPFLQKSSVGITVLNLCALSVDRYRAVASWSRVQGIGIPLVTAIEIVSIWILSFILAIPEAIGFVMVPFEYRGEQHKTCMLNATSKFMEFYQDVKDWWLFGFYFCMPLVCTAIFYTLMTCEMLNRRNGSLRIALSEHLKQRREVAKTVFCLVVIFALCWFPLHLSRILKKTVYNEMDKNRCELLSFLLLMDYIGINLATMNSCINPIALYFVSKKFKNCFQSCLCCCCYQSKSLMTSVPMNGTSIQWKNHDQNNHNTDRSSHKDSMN

Read-outs that look alike come from different tables or passages of the source.

For `CCCCN(CCCC)C(=O)CN1C[C@H](c2ccc3c(c2)OCO3)[C@@H](C(=O)O)[C@@H]1c1ccc(OC)cc1` [ABT-627], in data set [1], the “Time to dissociate from the ET-A receptor” value was at most 2 h.

For “Avidin: biotin-binding protein, source chicken egg white; member of the biotin-avidin binding pair”, the Koff runs as follows: (pH 2) 200 sec^−1 · 10^7; (pH 3) 9 sec^−1 · 10^7; (pH 5) 0.9 sec^−1 · 10^7; (pH 7) 0.4 sec^−1 · 10^7.

With “Streptavidin: avidin derivative, source fermentation, no carbohydrates”, the Koff was 35 sec^−1 · 10^7 (pH 1.7); 19 sec^−1 · 10^7 (pH 3); 8.7 sec^−1 · 10^7 (pH 5); 28 sec^−1 · 10^7 (pH 7); 64 sec^−1 · 10^7 (pH 9.2); 100 sec^−1 · 10^7 (pH 10.5).
